Results on five sequences are retold here after the supplement of paper PMC5998384.

Data set [1] deals with HeLa Kyoto. Briefly: melting temperature (median over replicates), in situ; higher = more thermally stable.
Data set [2] relates to HeLa Kyoto. Briefly: thermal stability score vs G1/S (z-score of summed log2 fold changes over temperatures); higher = more thermally stable than in G1/S.
In data set [3] the test system is HeLa Kyoto. Briefly: solubility in G1/S (NP-40 vs SDS abundance) (log2 ratio); higher = more soluble. The following applies: cell cycle stage: G1/S.
For data set [4], the system named is HeLa Kyoto. Briefly: solubility change mitosis vs G1/S (difference of NP-40 vs SDS log2 ratios) (log2 ratio difference); higher = more soluble in mitosis.
Where [5] appears, read: cell cycle stage: early G1 (4.5 h after nocodazole release).
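For melting temperature (median over replicates), in situ in this document: HeLa Kyoto cells synchronized by double thymidine or nocodazole block, proteins quantified by TMT10plex mass spectrometry, three independent biological replicates.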
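For solubility change mitosis vs G1/S (difference of NP-40 vs SDS log2 ratios) in this document: synchronized HeLa Kyoto cells (double thymidine block for G1/S, nocodazole release for mitosis), protein amounts in NP-40 versus SDS lysates quantified by mass spectrometry, three biological replicates.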
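For solubility in G1/S (NP-40 vs SDS abundance) in this document: HeLa Kyoto cells arrested at G1/S by double thymidine block, proteins quantified by TMT10plex mass spectrometry in mild NP-40 versus SDS extracts, three biological replicates.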
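For thermal stability score vs G1/S (z-score of summed log2 fold changes over temperatures) in this document: synchronized HeLa Kyoto cells, proteins quantified by TMT10plex mass spectrometry, three biological replicates, mitosis taken 0.5 h after nocodazole release, G1/S directly after double thymidine block.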

For the sequence “MGNCHTVGPNEALVVSGGCCGSDYKQYVFGGWAWAWWCISDTQRISLEIMTLQPRCEDVETAEGVALTVTGVAQVKIMTEKELLAVACEQFLGKNVQDIKNVVLQTLEGHLRSILGTLTVEQIYQDRDQFAKLVREVAAPDVGRMGIEILSFTIKDVYDKVDYLSSLGKTQTAVVQRDADIGVAEAERDAGIREAECKKEMLDVKFMADTKIADSKRAFELQKSAFSEEVNIKTAEAQLAYELQGAREQQKIRQEEIEIEVVQRKKQIAVEAQEILRTDKELIATVRRPAEAEAHRIQQIAEGEKVKQVLLAQAEAEKIRKIGEAEAAVIEAMGKAEAERMKLKAEAYQKYGDAAKMALVLEALPQIAAKIAAPLTKVDEIVVLSGDNSKVTSEVNRLLAELPASVHALTGVDLSKIPLIKKATGVQV [FLOT2]”, the values for the melting temperature in data set [1] (cell cycle stage: G1/S) and in data set [1] (cell cycle stage: mitosis) were 56.8 °C and 55.8 °C, respectively. Besides, the values for the thermal stability score in data set [2] (setting [5]) and in data set [2] (cell cycle stage: mitosis) were -2.8 and -0.0606, respectively. In addition, in data set [3], the “solubility in G1/S (log2)” value was -1.04. Also, the “solubility change mitosis (log2)” value in data set [4] was 0.153.
On to “MGPLSARLLMQRGRPKSDRLGKIRSLDLSGLELLSEHLDPKLLCRLTQLQELDLSNNHLETLPDNLGLSHLRVLRCANNQLGDVTALCQFPKLEELSLEGNPFLTVNDNLKVSFLLPTLRKVNGKDASSTYSQVENLNRELTSRVTAHWEKFMATLGPEEEAEKAQADFVKSAVRDVRYGPESLSEFTQWRVRMISEELVAASRTQVQKANSPEKPPEAGAAHKPRARLAALKRPDDVPLSLSPSKRACASPSAQVEGSPVAGSDGSQPAVKLEPLHFLQCHSKNNSPQDLETQLWACAFEPAWEEGATSQTVATCGGEAVCVIDCQTGIVLHKYKAPGEEFFSVAWTALMVVTQAGHKKRWSVLAAAGLRGLVRLLHVRAGFCCGVIRAHKKAIATLCFSPAHETHLFTASYDKRIILWDIGVPNQDYEFQASQLLTLDTTSIPLRLCPVASCPDARLLAGCEGGCCCWDVRLDQPQKRRVCEVEFVFSEGSEASGRRVDGLAFVNEDIVASKGSGLGTICLWSWRQTWGGRGSQSTVAVVVLARLQWSSTELAYFSLSACPDKGIVLCGDEEGNVWLYDVSNILKQPPLLPAALQAPTQILKWPQPWALGQVVTKTMVNTVVANASFTYLTALTDSNIVAIWGRM [LRWD1]”, for which the melting temperature in data set [1] (cell cycle stage: G1/S) came out at 48 °C; in data set [1] (cell cycle stage: mitosis), 49.1 °C. In addition, the thermal stability score in data set [2] (setting [5]) was 1.14; in data set [2] (cell cycle stage: mitosis) it was 1.7. Further, in data set [3], the “solubility in G1/S (log2)” value is -0.185. The “solubility change mitosis (log2)” value in data set [4] is -0.0674.
Consider “MGQGPRSPHKVGRRFPAGGKRGRGAKGSGRPLPGRKRQPWPPPDGRSEPAPDSHPHLSPEALGYFRRALSALKEAPETGEERDLMVHNIMKEVETQALALSTNRTGSEMLQELLGFSPLKPLCRVWAALRSNLRTVACHRCGVHVLQSALLQLPRLLGSAAEEEEEEEEDGKDGPTETLEELVLGLAAEVCDDFLVYCGDTHGSFVVRTLLQVLGGTILESERARPRGSQSSEAQKTPAQECKPADFEVPETFLNRLQDLSSSFLKDIAVFITDKISSFCLQVALQVLHRKLPQFCAHLCNAVIGYLSTRGSSVDGSPLLLFLRDQTSSRLLEQVLLVLEPPRLQSLFEEHLQGQLQTLAAHPIANFPLQRLLDAVTTPELLSPVFEELSPVLEAVLAQGHPGVVIALVGACRRVGAYQAKVLQLLLEAFHCAEPSSRQVACVPLFATLMAYEVYYGLTEEEGAVPAEHQVAMAAARALGDVTVLGSLLLQHLLHFSTPGLVLRSLGALTGPQLLSLAQSPAGSHVLDAILTSPSVTRKLRRRVLQNLKGQYVALACSRHGSRVLDAIWSGAALRARKEIAAELGEQNQELIRDPFGHHVARNVALTTFLKRREAWEQQQGAVAKRRRALNSILED [NOP9]”, for which the melting temperature in data set [1] (cell cycle stage: G1/S) and in data set [1] (cell cycle stage: mitosis) was 49.1 °C throughout. Further, the thermal stability score in data set [2] (setting [5]) turned out to be 0.433; in data set [2] (cell cycle stage: mitosis), 0.684. In data set [3], the “solubility in G1/S (log2)” value is -0.0623. Also, the “solubility change mitosis (log2)” value in data set [4] stood at 0.2.
For “MGQNDLMGTAEDFADQFLRVTKQYLPHVARLCLISTFLEDGIRMWFQWSEQRDYIDTTWNCGYLLASSFVFLNLLGQLTGCVLVLSRNFVQYACFGLFGIIALQTIAYSILWDLKFLMRNLALGGGLLLLLAESRSEGKSMFAGVPTMRESSPKQYMQLGGRVLLVLMFMTLLHFDASFFSIVQNIVGTALMILVAIGFKTKLAALTLVVWLFAINVYFNAFWTIPVYKPMHDFLKYDFFQTMSVIGGLLLVVALGPGGVSMDEKKKEW [SURF4]”, the melting temperature stood at 57.4 °C in data set [1] (cell cycle stage: G1/S) and 56.2 °C in data set [1] (cell cycle stage: mitosis). Besides, the values for the thermal stability score in data set [2] (setting [5]) and in data set [2] (cell cycle stage: mitosis) were -0.529 and -2.05, respectively. The “solubility in G1/S (log2)” value in data set [3] was found to be 0.185. The “solubility change mitosis (log2)” value in data set [4] was 0.00821.
“MGRCCFYTAGTLSLLLLVTSVTLLVARVFQKAVDQSIEKKIVLRNGTEAFDSWEKPPLPVYTQFYFFNVTNPEEILRGETPRVEEVGPYTYRELRNKANIQFGDNGTTISAVSNKAYVFERDQSVGDPKIDLIRTLNIPVLTVIEWSQVHFLREIIEAMLKAYQQKLFVTHTVDELLWGYKDEILSLIHVFRPDISPYFGLFYEKNGTNDGDYVFLTGEDSYLNFTKIVEWNGKTSLDWWITDKCNMINGTDGDSFHPLITKDEVLYVFPSDFCRSVYITFSDYESVQGLPAFRYKVPAEILANTSDNAGFCIPEGNCLGSGVLNVSICKNGAPIIMSFPHFYQADERFVSAIEGMHPNQEDHETFVDINPLTGIILKAAKRFQINIYVKKLDDFVETGDIRTMVFPVMYLNESVHIDKETASRLKSMINTTLIITNIPYIIMALGVFFGLVFTWLACKGQGSMDEGTADERAPLIRT [SCARB2]”: the melting temperature in data set [1] (cell cycle stage: G1/S) is 58.5 °C; in data set [1] (cell cycle stage: mitosis), 60.2 °C. Further, the thermal stability score was -2.37 in data set [2] (setting [5]) and -3.51 in data set [2] (cell cycle stage: mitosis). For the same sequence, the “solubility in G1/S (log2)” value in data set [3] worked out at 0.3. In addition, in data set [4], the “solubility change mitosis (log2)” value is -0.119.
